Source: the supplement of paper PMC10598134
± gives the standard deviation.

Assay: collision cross section of modified peptide (TIMS, N2, iRT-aligned); higher = larger / more extended gas-phase ion
Procedure: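 1/K0 was aligned run-wise to spiked iRT peptides and converted to CCS in N2 (Mason-Schamp). Values are the mean of 1-3 technical replicates for the most abundant feature at each charge state.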

[1] = charge state: 3, modification: Methyl (K)
[2] = charge state: 2, modification: Methyl (K)
[3] = charge state: 2, modification: Dimethyl (K)
[4] = charge state: 3, modification: Dimethyl (K)
[5] = charge state: 2, modification: hydroxyisobutyryl
[6] = charge state: 2, modification: Succinyl
[7] = charge state: 3, modification: hydroxyisobutyryl
[8] = charge state: 2, modification: GlyGly (K)
[9] = charge state: 3, modification: GlyGly (K)
[10] = charge state: 2, modification: Butyryl
[11] = charge state: 3, modification: Butyryl
[12] = charge state: 2, modification: Phospho (Y)
[13] = charge state: 2, modification: Trimethyl (K)
[14] = charge state: 3, modification: Trimethyl (K)
[15] = charge state: 2, modification: Malonyl
[16] = charge state: 2, modification: Formyl
[17] = charge state: 3, modification: Succinyl
[18] = charge state: 2, modification: Nitro (Y)
[19] = charge state: 2, modification: Propionyl
[20] = charge state: 2, modification: Hydroxyproline
[21] = charge state: 2, modification: Biotin
[22] = charge state: 2, modification: Crotonyl
[23] = charge state: 2, modification: Glutarylation
[24] = charge state: 3, modification: Glutarylation
[25] = charge state: 3, modification: Formyl
[26] = charge state: 3, modification: Methyl (R)

“TQDQISNIKYHEEFEK [_TQDQISNIK(Methyl (K))YHEEFEK_]” gave a collision cross section [1] of 547.22 ± 0.37 Å².

In the case of “ANLEKAQAELVGTADEATR [_ANLEK(Methyl (K))AQAELVGTADEATR_]”, the collision cross section [2] is reported as 471.05 Å² and the collision cross section [1] is reported as 523.1 ± 0.87 Å².

Substance IGNSYFKEEK [_IGNSYFK(Dimethyl (K))EEK_] has a collision cross section [3] of 384.15 ± 0.26 Å² and a collision cross section [4] of 447.26 ± 3 Å².

“ASNAAVKLAESK [_ASNAAVK(hydroxyisobutyryl)LAESK_]” showed a collision cross section [5] of 376.83 ± 0.8 Å².

In the case of VFSIISSEKELK [_VFSIISSEK(Succinyl)ELK_], the collision cross section [6] is reported as 409.2 ± 4.2 Å².

“DAEAAEATAEGALKAEK [_DAEAAEATAEGALK(hydroxyisobutyryl)AEK_]” gave a collision cross section [5] of 435.11 ± 0.29 Å² and a collision cross section [7] of 547.8 ± 2.1 Å².

In the case of LQLEIDQKK [_LQLEIDQK(GlyGly (K))K_], the collision cross section [8] is reported as 376.75 ± 0.46 Å² and the collision cross section [9] is reported as 433 ± 2.7 Å².

Work on “IEDEQALGSQLQK [_IEDEQALGS(HexNAc (ST))QLQK_]” yielded a collision cross section (charge state: 2, modification: HexNAc (ST)) of 424.7 ± 0.62 Å² and a collision cross section (charge state: 3, modification: HexNAc (ST)) of 499.3 ± 0.96 Å².

“LQEKVESAQSEQK [_LQEK(Butyryl)VESAQSEQK_]” gave a collision cross section [10] of 419.43 ± 0.77 Å² and a collision cross section [11] of 504.21 ± 1.9 Å².

In the case of SVSSSSYR [_SVSSSSY(Phospho (Y))R_], the collision cross section [12] is reported as 317.55 ± 0.69 Å².

For “LTEKELAEAASK [_LTEK(Trimethyl (K))ELAEAASK_]”, the collision cross section [13] was 406.14 ± 0.61 Å² and the collision cross section [14] was 451.11 ± 2.4 Å².

LQLEIDQKK [_LQLEIDQK(Dimethyl (K))K_] showed a collision cross section [3] of 364.14 ± 0.52 Å² and a collision cross section [4] of 427.16 ± 2.1 Å².

“DSSPTTNSKLSALQR [_DSSPTTNSK(Methyl (K))LSALQR_]” showed a collision cross section [2] of 419.3 Å² and a collision cross section [1] of 475.79 ± 3.5 Å².

With “AGQKLIDVNHYAK [_AGQK(Malonyl)LIDVNHYAK_]” the collision cross section [15] was 433.55 ± 0.56 Å² and the collision cross section (charge state: 3, modification: Malonyl) was 477.49 ± 1.8 Å².

Substance VGTASVLQPVKK [_VGTASVLQPVK(Malonyl)K_] has a collision cross section [15] of 381.57 ± 0.0073 Å².

Substance “IINEPTAAAIAYGLDKK [_IINEPTAAAIAYGLDK(Acetyl (K))K_]” has a collision cross section (charge state: 2, modification: Acetyl (K)) of 458.66 ± 2.6 Å² and a collision cross section (charge state: 3, modification: Acetyl (K)) of 554.46 ± 1.6 Å².

ASEALLKQLK [_ASEALLK(Formyl)QLK_] showed a collision cross section [16] of 369.4 ± 0.89 Å².

For “DSSPTTNSKLSALQR [_DSSPTTNSK(Succinyl)LSALQR_]”, the collision cross section [6] was 428.81 ± 1.1 Å² and the collision cross section [17] was 496.14 ± 4.3 Å².

With “SLGEPAAGEGSAKR [_SLGEPAAGEGSAK(GlyGly (K))R_]” the collision cross section [8] was 411.44 ± 1.9 Å² and the collision cross section [9] was 486.35 ± 2.8 Å².

Substance “GADFLVTEVENGGSLGSKK [_GADFLVTEVENGGSLGSK(Trimethyl (K))K_]” has a collision cross section [14] of 548.47 ± 1.1 Å².

Substance “GNDISSGTVLSDYVGSGPPK [_GNDISSGTVLSDY(Nitro (Y))VGSGPPK_]” has a collision cross section [18] of 466.4 ± 0.42 Å².

YTAQVDAEEK [_Y(Nitro (Y))TAQVDAEEK_] showed a collision cross section [18] of 358.81 ± 0.55 Å².

With “GEVGAGAGPGAQAGPSAKR [_GEVGAGAGPGAQAGPSAK(Propionyl)R_]” the collision cross section [19] was 422.82 ± 0.97 Å² and the collision cross section (charge state: 3, modification: Propionyl) was 482.16 ± 0.88 Å².

Work on “DASTLQSQKAEGTGDAK [_DASTLQSQK(Butyryl)AEGTGDAK_]” yielded a collision cross section [10] of 440.14 ± 0.24 Å² and a collision cross section [11] of 511.91 ± 3.5 Å².

LLEQKTQESQK [_LLEQK(Butyryl)TQESQK_] showed a collision cross section [10] of 398.26 ± 0.79 Å².

DFDTALKHYDK [_DFDTALK(Propionyl)HYDK_] gave a collision cross section [19] of 403.21 Å².

With “AAQASDLEKIHLDEK [_AAQASDLEK(hydroxyisobutyryl)IHLDEK_]” the collision cross section [5] was 466.52 ± 0.88 Å² and the collision cross section [7] was 501.4 ± 2.8 Å².

In the case of “GDAGEPGRPGSPGK [_GDAGEP(Hydroxyproline)GRPGSPGK_]”, the collision cross section (charge state: 3, modification: Hydroxyproline) is reported as 446.53 ± 1.3 Å².

In the case of RGPPGAK [_RGPP(Hydroxyproline)GAK_], the collision cross section [20] is reported as 303.1 ± 0.0067 Å².

SEASSEFAKK [_SEASSEFAK(Biotin)K_] gave a collision cross section [21] of 374.33 Å².

With “TEVLSPNSKVESK [_TEVLSPNSK(Butyryl)VESK_]” the collision cross section [10] was 418.57 ± 0.77 Å² and the collision cross section [11] was 463.23 ± 20 Å².

“TQDQISNIKYHEEFEK [_TQDQISNIK(Trimethyl (K))YHEEFEK_]” gave a collision cross section [14] of 544.72 ± 0.9 Å².

In the case of “PANEKATDDYHYEK [_PANEK(Succinyl)ATDDYHYEK_]”, the collision cross section [6] is reported as 446.9 ± 1.1 Å² and the collision cross section [17] is reported as 500.9 ± 1.6 Å².

“VDIDVPDVNIEGPDAKLK [_VDIDVPDVNIEGPDAK(Crotonyl)LK_]” showed a collision cross section [22] of 487.32 Å².

“GFPGAPGLPGLK [_GFPGAP(Hydroxyproline)GLPGLK_]” showed a collision cross section [20] of 358.41 ± 0.79 Å².

“DKALPLEAEVAPVK [_DK(Dimethyl (K))ALPLEAEVAPVK_]” showed a collision cross section [3] of 411.93 ± 0.85 Å² and a collision cross section [4] of 502.53 ± 1.6 Å².

Substance “AGQKLIDVNHYAK [_AGQK(Gluratylation)LIDVNHYAK_]” has a collision cross section [23] of 437.49 ± 0.96 Å² and a collision cross section [24] of 489.6 ± 0.95 Å².

“GTISAPGKVVTAAAQAK [_GTISAPGK(GlyGly (K))VVTAAAQAK_]” gave a collision cross section [8] of 456.01 ± 1.6 Å² and a collision cross section [9] of 541.49 ± 0.36 Å².

For “YADLTEDQLPSCESLK [_Y(Nitro (Y))ADLTEDQLPSCESLK_]”, the collision cross section [18] was 442.66 ± 0.55 Å².

With “LGGDLGTYVINK [_LGGDLGTY(Nitro (Y))VINK_]” the collision cross section [18] was 371.97 ± 0.72 Å².

Work on “LLIVSTTPYSEKDTK [_LLIVSTTPYSEK(Formyl)DTK_]” yielded a collision cross section [16] of 448.09 ± 0.69 Å² and a collision cross section [25] of 480.73 ± 1.5 Å².

“TGGTQTDLFTCGKCK [_TGGTQTDLFTCGK(hydroxyisobutyryl)CK_]” showed a collision cross section [5] of 448.92 Å².

Work on “FGTINIVHPKLGSYTK [_FGTINIVHPK(Dimethyl (K))LGSYTK_]” yielded a collision cross section [4] of 520.37 ± 1.2 Å².

Work on “ATVASSTQKFQDLGVK [_ATVASSTQK(Formyl)FQDLGVK_]” yielded a collision cross section [16] of 442.05 ± 0.78 Å².

Substance “GEVQVSDKER [_GEVQVSDK(hydroxyisobutyryl)ER_]” has a collision cross section [5] of 366.78 ± 0.27 Å².

Substance ILDLKTGTVK [_ILDLK(GlyGly (K))TGTVK_] has a collision cross section [8] of 373.1 ± 0.25 Å² and a collision cross section [9] of 439.15 ± 0.43 Å².

Work on “GTITVSAQELKDNR [_GTITVSAQELK(Malonyl)DNR_]” yielded a collision cross section [15] of 419.75 ± 0.051 Å².

“SGRGGNFGFGDSR [_SGR(Methyl (R))GGNFGFGDSR_]” showed a collision cross section [26] of 452.71 ± 3.1 Å².

With “STGLELETPSLVPVKK [_STGLELETPSLVPVK(Malonyl)K_]” the collision cross section [15] was 445.74 ± 0.66 Å².

Work on “VQGGALEDSQLVAGVAFKK [_VQGGALEDSQLVAGVAFK(Gluratylation)K_]” yielded a collision cross section [23] of 484.97 ± 2 Å² and a collision cross section [24] of 564.26 Å².

With “YSRGAGLGFSTAPNK [_YSR(Methyl (R))GAGLGFSTAPNK_]” the collision cross section [26] was 478.19 ± 2.5 Å².

Substance “TFGKAAGPSLSHTSGGTQSK [_TFGK(Formyl)AAGPSLSHTSGGTQSK_]” has a collision cross section [16] of 488.52 ± 0.72 Å² and a collision cross section [25] of 508.22 ± 1.5 Å².

“VGIDTPDIDIHGPEGKLK [_VGIDTPDIDIHGPEGK(Crotonyl)LK_]” showed a collision cross section [22] of 496.91 Å² and a collision cross section (charge state: 3, modification: Crotonyl) of 540.02 ± 1.3 Å².

“SGKFTQQDIDEAK [_SGK(GlyGly (K))FTQQDIDEAK_]” gave a collision cross section [8] of 414.34 ± 1.9 Å² and a collision cross section [9] of 476.61 ± 1.1 Å².

“PSVGSQSNQAGQGKR [_PSVGSQSNQAGQGK(Biotin)R_]” gave a collision cross section [21] of 421.78 ± 0.67 Å² and a collision cross section (charge state: 3, modification: Biotin) of 480.61 ± 0.34 Å².

Work on YEATSVQQK [_Y(Phospho (Y))EATSVQQK_] yielded a collision cross section [12] of 348.75 ± 0.066 Å².

For IGNSYFKEEK [_IGNSYFK(Succinyl)EEK_], the collision cross section [6] was 382.2 ± 0.76 Å².

With “SGKFTQQDIDEAK [_SGK(Trimethyl (K))FTQQDIDEAK_]” the collision cross section [13] was 408.18 ± 1.1 Å² and the collision cross section [14] was 472.62 ± 0.88 Å².

For “GTVPDDAVEALADSLGKK [_GTVPDDAVEALADSLGK(Trimethyl (K))K_]”, the collision cross section [13] was 486.05 ± 4.8 Å² and the collision cross section [14] was 534.79 ± 2.4 Å².

In the case of TLDEILQEKK [_TLDEILQEK(GlyGly (K))K_], the collision cross section [8] is reported as 390.82 ± 2.5 Å² and the collision cross section [9] is reported as 438.72 ± 1.6 Å².

With “AGPNASIISLKSDK [_AGPNASIISLK(Propionyl)SDK_]” the collision cross section [19] was 409.61 ± 0.38 Å².

In the case of “VDIDAPDVSIEGPDAKLK [_VDIDAPDVSIEGPDAK(Methyl (K))LK_]”, the collision cross section [2] is reported as 453.93 ± 0.34 Å² and the collision cross section [1] is reported as 544.25 ± 0.42 Å².

With “LEEVTGKLQVAR [_LEEVTGK(Propionyl)LQVAR_]” the collision cross section [19] was 394.4 ± 1.3 Å².

Work on LLEQKTQESQK [_LLEQK(Crotonyl)TQESQK_] yielded a collision cross section [22] of 398.38 ± 1.1 Å².

“GADFLVTEVENGGSLGSKK [_GADFLVTEVENGGSLGSK(Methyl (K))K_]” gave a collision cross section [2] of 494.56 Å² and a collision cross section [1] of 538.26 Å².

In the case of “STNVTVAAARGIK [_STNVTVAAAR(Citrullination (R))GIK_]”, the collision cross section (charge state: 2, modification: Citrullination (R)) is reported as 395.23 ± 1.3 Å² and the collision cross section (charge state: 3, modification: Citrullination (R)) is reported as 471.03 Å².
